Values quoted from earlier work, collected in article PMC3134471.

Molecular target: luteinizing hormone receptor (Homo sapiens) (UniProt P22888)
Sequence of UniProt P22888 (P22888 27-699): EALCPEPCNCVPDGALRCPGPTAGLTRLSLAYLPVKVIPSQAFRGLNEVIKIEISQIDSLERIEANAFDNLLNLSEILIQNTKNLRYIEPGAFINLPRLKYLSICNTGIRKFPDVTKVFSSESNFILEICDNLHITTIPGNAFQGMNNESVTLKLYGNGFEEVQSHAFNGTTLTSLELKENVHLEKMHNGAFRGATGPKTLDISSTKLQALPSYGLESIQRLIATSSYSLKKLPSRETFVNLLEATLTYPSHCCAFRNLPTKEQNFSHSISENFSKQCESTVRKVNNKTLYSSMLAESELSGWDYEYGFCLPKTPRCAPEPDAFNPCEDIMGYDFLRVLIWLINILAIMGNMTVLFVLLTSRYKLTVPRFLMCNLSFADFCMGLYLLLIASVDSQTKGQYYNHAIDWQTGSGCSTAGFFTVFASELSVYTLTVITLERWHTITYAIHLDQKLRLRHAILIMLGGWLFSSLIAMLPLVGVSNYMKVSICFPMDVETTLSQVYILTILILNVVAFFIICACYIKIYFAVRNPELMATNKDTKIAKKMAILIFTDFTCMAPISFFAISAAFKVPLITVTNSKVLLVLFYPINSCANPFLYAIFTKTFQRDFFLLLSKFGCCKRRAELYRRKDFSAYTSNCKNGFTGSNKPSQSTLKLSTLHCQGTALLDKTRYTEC

- Kd: 0.3 nM
Substance: human chorionic gonadotropin (from UniProt P01215)
